# According to article PMC6614797:
# Assays:
# [1] = target: NusA-AR2^D443C labeled with fluorescein-5-maleimide (E. coli) (UniProt P0AFF6); assay: fluorescence polarisation
# RNA polymerase (E. coli) = RNA polymerase (E. coli) (UniProt P0A7Z4); assay: SEC
Substance,Kd [1] [µM],percent of SuhB coeluted with the rrnG-TAC (RNA polymerase (E. coli)) [%],percent of S4 coeluted with the rrnG-TAC (RNA polymerase (E. coli)) [%]
inositol monophosphatase SuhB (from UniProt P0ADG4 1-267) (natural protein),83,20,–
ribosomal protein S4 (from UniProt P0A7V8 1-206) (natural protein),–,–,25
